From US20090202508A1, “NEGATIVE REGULATION OF HYPOXIA INDUCIBLE FACTOR 1 BY OS-9” (THE JOHNS HOPKINS UNIVERSITY, priority 2004, published 2009)

Tests used:
HIF-1α = HIF-1α (Homo sapiens, UniProt Q16665); experiment: Co-immunoprecipitation of HA-OS-9 and HIF-1α in 293 cells; assay type: cell-based; conditions: anti-HA immunoprecipitation, FIG. 2B
Procedure: (§1) 293 cells (3×10^6 cells per […] plate) were transfected with Lipofectamine Plus and a total of 10 μg of expression vectors. After 24 h, cells were lysed with PBS/0.1% Tween-20. 400 μg of whole cell lysate (brought to a final volume of 200 μl with lysis buffer) were immunoprecipitated using anti-HA affinity matrix (Roche) followed by immunoblot assay using antibody against HIF-1α (Zhong et al. 1999), PHD 1-3 (Novus Biologicals Inc.), or HA (Roche).

PHD2 [1] = target: T1, PHD2 (Homo sapiens, UniProt Q9GZT9); experiment: Co-immunoprecipitation of HA-OS-9 with PHD2 in 293 cells; assay type: cell-based; conditions: anti-HA immunoprecipitates, immunoblot; FIG. 5
T1 construct: expressed in transfected cells; host or cells: 293 cells (whole cell lysate used as the enzyme source)
T1 sequence (Q9GZT9 whole entry): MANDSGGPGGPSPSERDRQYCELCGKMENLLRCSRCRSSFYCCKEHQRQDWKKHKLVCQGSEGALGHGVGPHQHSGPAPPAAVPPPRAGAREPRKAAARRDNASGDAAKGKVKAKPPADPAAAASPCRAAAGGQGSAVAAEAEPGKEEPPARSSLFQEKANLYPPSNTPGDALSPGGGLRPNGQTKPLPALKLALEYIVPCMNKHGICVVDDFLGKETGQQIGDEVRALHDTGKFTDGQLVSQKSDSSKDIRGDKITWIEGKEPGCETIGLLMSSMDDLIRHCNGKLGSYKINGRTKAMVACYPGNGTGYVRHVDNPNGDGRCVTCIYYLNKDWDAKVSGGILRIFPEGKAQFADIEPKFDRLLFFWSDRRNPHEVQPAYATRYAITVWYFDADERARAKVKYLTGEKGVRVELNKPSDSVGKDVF
Procedure: as §1

PHD2 [2] = target: T1, PHD2; experiment: PHD binding assay (pull down of PHD2 with GST-HIF-1α (531-826)); conditions: lysates from cells transfected with OS-9 and PHD2 vectors versus PHD2 vector alone; FIG. 7B
Procedure: (§2) For in vitro VHL binding assay, preincubated GstA and 5 μl of [^35S]methionine-labeled VHL protein were mixed in a total volume of 300 μl of PBS-T with 1 mM desferrioxamine and incubated at 4° C. for 90 min. 20 ul of glutathione-Sepharose-4B beads (Amersham Biosciences) was added and incubated for 30 min with rotation. Beads were washed three times with PBS-T. Proteins were eluted in Laemmli sample buffer, fractionated by SDS-PAGE, and detected by autoradiography. For PHD binding assay, […] of GST-HIF-1α was preincubated with 50 μg of -whole cell lysate in a total volume of 50 μl with PBS-T at 30° C. for 10 min with or without 1 mM DMOG. The reaction was terminated by addition of desferrioxamine to 1 mM, 20 μl of glutathione-Sepharose-4B beads were added and incubated for 30 min. The beads were washed three times with PBS-T. Bound protein was eluted in Laemmli sample buffer, fractionated by SDS-PAGE, and subjected to immunoblot assay using antibodies against PHD2 (Novus Biologicals Inc.) or GST (Amersham).

PHD2 [3] = target: T1, PHD2; experiment: Prolyl hydroxylation assay / in vitro VHL binding assay with GST-HIF-1α (531-826); assay type: biochemical
Procedure: [^35S]methionine-labeled VHL protein was synthesized in vitro and GST-HIF-1α (531-826) fusion protein (GstA) was expressed in E. coli. 293 cells were transfected with empty, PHD2, or OS-9 expression vector. After 24 h, cells were washed twice with cold hypotonic extraction buffer containing 20 mM Tris (pH 7.5), 5 mM KCl, 1.5 mM MgCl2, 1 mM dithiothreitol and lysed with hypotonic extraction buffer in a Dounce homogenizer. The cell extract was centrifuged at 10,000×g for 10 min at 4° C., and the supernatant was stored in aliquots at −70° C. GstA (4 μg) was preincubated with whole cell lysate (50 μg) in a total volume of 50 μl with PBS-T at 30° C. for 10 min with or without 1 mM dimethyloxalyl glycine (DMOG). The reaction was terminated by addition of desferrioxamine to 1 mM. One aliquot (0.5 μg of GstA) was used for immunoblot assay using anti-hydroxyproline-564 HIF-1α antibody (Chan et al., 2002). The remainder ([…] of GstA) was used for in vitro VHL binding assay.
as §2

[4] = system: HIF-1α transactivation domains (residues 531-826); experiment: GAL4-dependent reporter (pGalA) transactivation assay; assay type: cell-based, human; conditions: co-transfection of OS-9 expression vector; FIG. 3B
Procedure: 293 or Hep3B cells were seeded onto 24-well plates at 8×10^4 cells per well of a 24-well plate. The following day, the cells were transfected with plasmid DNAs using Fugene-6 (Roche) for 293 and Lipofectamine Plus (Invitrogen) for Hep3B cells. After 24 h, the cells were exposed to 20% or 1% O2 for 24 h. Cells were lysed, and the luciferase activities were determined by multi-well luminescence reader (PerkinElmer), using the Dual-Luciferase Reporter Assay System (Promega). For p2.1 reporter assay, cells were co-transfected with 15 ng of control reporter pSV-Renilla, 135 ng of HIF-1 reporter p2.1, and expression vector encoding HA-OS-9, HIF-1α, or empty vector. Unless indicated otherwise, 200 ng of HIF-1α, 400 ng of HA-OS-9, 1 ng of PHD2, or 1 ng of HIF-1α triple mutant P402A/P564A/N803A (HIF-1α TM) expression vector was used for co-transfection. For pGalA reporter assays, Hep3B cells were co-transfected with 12.5 ng of pSV-Renilla, reporter 200 ng of pG5ElbLuc, 100 ng of expression vector encoding the GAL4 DNA-binding domain alone or fused to HIF-1α residues 531-826 (Jiang et al. 1997) and empty vector or vector encoding HA-OS-9. For immunoblot assays, 293 cells were seeded at 3×10^6 cells per 10-cm plate. The following day, the cells were co-transfected with expression vectors using Fugene-6. […]

PHD1 = target: T2, PHD1 (Homo sapiens, UniProt Q96KS0); experiment: Co-immunoprecipitation of HA-OS-9 with PHD1 in 293 cells; assay type: cell-based; conditions: anti-HA immunoprecipitates, immunoblot; FIG. 5
T2 construct: expressed in transfected cells; host or cells: 293 cells
T2 sequence (Q96KS0 whole entry): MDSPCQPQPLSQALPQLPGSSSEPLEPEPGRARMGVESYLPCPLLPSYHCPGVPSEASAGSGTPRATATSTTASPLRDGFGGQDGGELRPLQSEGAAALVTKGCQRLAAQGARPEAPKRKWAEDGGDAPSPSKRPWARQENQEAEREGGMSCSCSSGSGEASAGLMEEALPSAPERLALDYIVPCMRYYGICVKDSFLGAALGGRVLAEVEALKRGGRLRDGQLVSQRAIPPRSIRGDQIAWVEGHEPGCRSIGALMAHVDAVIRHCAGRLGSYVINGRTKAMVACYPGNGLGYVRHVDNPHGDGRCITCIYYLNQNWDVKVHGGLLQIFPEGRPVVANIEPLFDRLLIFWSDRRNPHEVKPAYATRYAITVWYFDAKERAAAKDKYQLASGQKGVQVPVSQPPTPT
Procedure: as §1

PHD3 = target: T3, PHD3 (Homo sapiens, UniProt Q9H6Z9); experiment: Co-immunoprecipitation of HA-OS-9 with PHD3 in 293 cells; assay type: cell-based; conditions: anti-HA immunoprecipitates, immunoblot; FIG. 5
T3 construct: expressed in transfected cells; host or cells: 293 cells
T3 sequence (Q9H6Z9 whole entry): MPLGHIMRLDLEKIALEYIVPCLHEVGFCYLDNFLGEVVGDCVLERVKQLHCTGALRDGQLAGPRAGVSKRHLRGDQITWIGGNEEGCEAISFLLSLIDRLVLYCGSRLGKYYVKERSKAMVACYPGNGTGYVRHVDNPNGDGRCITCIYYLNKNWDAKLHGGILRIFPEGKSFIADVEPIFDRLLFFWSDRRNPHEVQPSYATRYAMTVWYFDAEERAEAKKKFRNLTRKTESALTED
Procedure: as §1

Sequence of HIF-1α (Q16665 whole entry): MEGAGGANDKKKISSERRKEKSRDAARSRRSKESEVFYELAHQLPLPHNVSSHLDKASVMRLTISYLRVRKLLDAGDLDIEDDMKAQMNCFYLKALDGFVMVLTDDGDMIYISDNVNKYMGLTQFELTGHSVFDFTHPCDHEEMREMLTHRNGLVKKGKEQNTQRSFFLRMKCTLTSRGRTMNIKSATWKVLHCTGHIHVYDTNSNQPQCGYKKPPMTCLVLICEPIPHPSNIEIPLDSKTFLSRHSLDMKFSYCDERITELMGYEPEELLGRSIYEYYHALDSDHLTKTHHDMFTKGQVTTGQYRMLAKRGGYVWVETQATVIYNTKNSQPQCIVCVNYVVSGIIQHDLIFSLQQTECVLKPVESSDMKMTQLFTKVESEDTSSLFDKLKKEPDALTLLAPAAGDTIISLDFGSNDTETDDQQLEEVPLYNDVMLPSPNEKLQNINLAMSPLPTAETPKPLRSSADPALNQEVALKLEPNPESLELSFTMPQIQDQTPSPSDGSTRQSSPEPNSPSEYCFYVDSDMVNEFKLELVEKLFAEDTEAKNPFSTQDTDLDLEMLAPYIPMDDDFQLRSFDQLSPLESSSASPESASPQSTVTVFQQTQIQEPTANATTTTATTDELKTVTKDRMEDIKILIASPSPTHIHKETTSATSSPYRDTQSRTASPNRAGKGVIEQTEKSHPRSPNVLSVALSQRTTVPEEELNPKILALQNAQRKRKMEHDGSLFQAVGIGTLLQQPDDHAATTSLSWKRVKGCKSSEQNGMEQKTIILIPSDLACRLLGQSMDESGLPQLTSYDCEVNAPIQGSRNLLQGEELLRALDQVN

interaction of HA-OS-9 and HIF-1α in living cells (HIF-1α): coimmunoprecipitation
interaction of OS-9 with PHD2 (PHD2 [1]): interaction
binding of PHD2 to GST-HIF-1α (531-826) (PHD2 [2]): increased binding
prolyl hydroxylation of GST-HIF-1α (531-826) (hydroxyproline at residue 564) (PHD2 [3]; immunoblot with anti-Hyp-564 antibody, FIG. 7A middle panel): increase
binding of VHL to hydroxylated GST-HIF-1α (531-826) (PHD2 [3]; increasing amounts of in vitro-translated OS-9 added after hydroxylation, desferrioxamine present, FIG. 6C): no effect
VHL binding to GST-HIF-1α (531-826) (PHD2 [3]; lysates from cells co-transfected with PHD2 and OS-9 versus PHD2 alone, FIG. 7A top panel): further increased
interaction of OS-9 with PHD1 (PHD1): interaction
interaction of OS-9 with PHD3 (PHD3): interaction
B1: OS-9: human OS-9 protein (667-residue isoform), HA-tagged, from expression vector or in vitro-translated (protein)
chain: MAAETLLSSLLGLLLLGLLLPASLTGGVGSLNLEELSEMRYGIEILPLPVMGGQSQSSDVVIVSSKYKQRYECRLPAGAIHFQREREEETPAYQGPGIPELLSPMRDAPCLLKTKDWWTYEFCYGRHIQQYHMEDSEIKGEVLYLGYYQSAFDWDDETAKASKQHRLKRYHSQTYGNGSKCDLNGRPREAEVRFLCDEGAGISGDYIDRVDEPLSCSYVLTIRTPRLCPHPLLRPPPSAAPQAILCHPSLQPEEYMAYVQRQADSKQYGDKIIEELQDLGPQVWSETKSGVAPQKMAGASPTKDDSKDSDFWKMLNEPEDQAPGGEEVPAEEQDPSPEAADSASGAPNDFQNNVQVKVIRSPADLIRFIEELKGGTKKGKPNIGQEQPVDDAAEVPQREPEKERGDPERQREMEEEEDEDEDEDEDEDERQLLGEFEKELEGILLPSDRDRLRSEVKAGMERELENIIQETEKELDPDGLKKESERDRAMLALTSTLNKLIKRLEEKQSPELVKKHKKKRVVPKKPPPSPQPTEEDPEHRVRVRVTKLRLGGPNQDLTVLEMKRENPQLKQIEGLVKELLEREGLTAAGKIEIKIVRPWAEGTEEGARWLTDEDTRNLKEIFFNILVPGAEEAQKERQRQKELESNYRRVWGSPGGEGTGDLDEFDF
modifications: left off: small tags and cut ends
notes: human OS-9 protein (667-residue isoform), HA-tagged, from expression vector or in vitro-translated
transactivation of GAL4-dependent reporter by pGalA [4]: no significant inhibitory effect
